For assay [1], the target named is SARS-CoV-2 spike (S) protein, full-length, expressed on the surface of HEK-293T cells (SARS-CoV-2 prototype (MN908947.3), UniProt P0DTC2). The assay can be described thus: flow cytometry on cells. As to conditions: one partner purified.
Assay [2] has as its target S2 (T1076-Q1208) protein as coated in ELISA (devoid of the His tag) (SARS-CoV-2, MN908947.3, UniProt P0DTC2). The assay can be described thus: ELISA; […], room temperature; […]. The following applies: both partners purified. A general note: ELISA stands for enzyme-linked immunosorbent assay.
Assay [3] has as its target SARS-CoV-2 S2 (T1076-Q1208) antigen, trimeric S2 fusion-core-based antigen (SARS-CoV-2 prototype (MN908947.3), UniProt P0DTC2, biotin (Biotinylation Kit)).
Assay [4] deals with HKU3 spike (S) protein expressed on HEK-293T cells (Bat SARS-like coronavirus HKU3, GenBank …, UniProt A0A7G6UAJ9, strain). The assay can be described thus: flow cytometry on cells. As to conditions: one partner purified. In general terms: Flow cytometry measures light scatter and fluorescence of single cells or particles in a stream.
Assay [5] concerns the target PANG/GD spike (S) protein expressed on HEK-293T cells (Pangolin coronavirus Guangdong …, strain). The assay can be described thus: flow cytometry on cells. The following applies: one partner purified.
The target of assay [6] is SARS-CoV spike (S) protein expressed on HEK-293T cells (SARS-CoV, GenBank AY278554.2, UniProt P59594). In words: flow cytometry on cells. As to conditions: one partner purified.
Assay [7] deals with WIV1 spike (S) protein expressed on HEK-293T cells (Bat SARS-like coronavirus WIV1 …, UniProt U5WI05, strain). In words: flow cytometry on cells. The following applies: one partner purified.
For assay [8], the target named is T1, GST-fused truncated S2 protein S2 (P1140-L1152) (SARS-CoV-2 prototype (MN908947.3), UniProt P0DTC2).
T1 construct: not shown: GST, N-terminal, kept
T1 chain: PLQPELDSFKEEL
In words: BLI; […]; 20 mM HEPES pH 7.4, 150 mM NaCl, 0.05% Tween-20. The following applies: both partners purified.

Assay [9] concerns the target T2, GST-fused truncated S2 protein S2 (D1139-E1150) (SARS-CoV-2, MN908947.3, UniProt P0DTC2).
T2 construct: not shown: GST, N-terminal, kept
T2 chain: DPLQPELDSFKE
Described as above. The following applies: both partners purified.

In assay [10] the target is T3, GST-fused truncated S2 protein S2 (L1141-L1152) (SARS-CoV-2 prototype (MN908947.3), UniProt P0DTC2).
T3 construct: not shown: GST, N-terminal, kept
T3 chain: LQPELDSFKEEL
The description is as above. The following applies: both partners purified.

Assay [11] concerns the target T4, GST-fused truncated S2 protein S2 (P1140-D1153) (SARS-CoV-2, MN908947.3, UniProt P0DTC2).
T4 construct: not shown: GST, N-terminal, kept
T4 chain: PLQPELDSFKEELD
The description is as above. The following applies: both partners purified.

Assay [12] has as its target T5, GST-fused truncated S2 protein S2 (D1139-L1152) (SARS-CoV-2, MN908947.3).
T5 construct: not shown: GST, N-terminal, kept
T5 chain: DPLQPELDSFKEEL
In words: ELISA; […], room temperature; […]. As to conditions: both partners purified.

The target in assay [13] is T6, GST-fused truncated S2 protein S2 (T1076-H1159) (SARS-CoV-2 prototype (MN908947.3), UniProt P0DTC2).
T6 construct: not shown: GST, N-terminal, kept
The assay can be described thus: far-Western, overlay or dot blot. The following applies: both partners purified.

In assay [14] the target is T7, epitope SH-peptide (spanning residues D1139-D1153) (SARS-CoV-2 prototype, UniProt P0DTC2).
T7 chain: DPLQPELDSFKEELD
In words: crystal structure. As to conditions: both partners purified.

The target of assay [15] is T1, GST-fused truncated S2 protein S2 …. The assay can be described thus: ELISA; […], room temperature; […]. As to conditions: both partners purified.
For assay [16], the target named is T3, GST-fused truncated S2 protein S2 …. The assay can be described thus: ELISA; […], room temperature; […]. The following applies: both partners purified.
Assay [17] addresses T4, GST-fused truncated S2 protein S2 …. In words: ELISA; […], room temperature; […]. The following applies: both partners purified.

Binding result and EC50 data for 10 molecules are collected here from article PMC12052392 (PLOS Pathogens, 2025).

One may read the EC50 as the midpoint of the concentration-response curve. A lower EC50 goes with an effect from little substance.

B1: nanobody H58 (VHH)
VHH: QLQLVESGGGLADDGGSLRLSCAASGFALRYWTVGWFRQAPGKEREGLACISRSGNITSYTDSAKGRFTISRDNAKNTVYLQMNSLKPEDTAVYYCTAVRRCFLTTWTPINPYYGMHSWGKGTLVTVSS
notes: not shown: His6, C-terminal, kept
Turning to B1, the binding result in assay [1] and in assay [2] was “binds” throughout.

B2: nanobody H68 (VHH)
VHH: EVQVVESGGGLVQPGGSLRLSCVGSSFTLNAIGWFRQAPGKEREWVSCTTGDGSTNYPDSVKGRFTISRDNAKNTVYLQMNSLKPEDTAVYYCTAVRRCFLTTWTPINPYYGMHSWGKGTLVTVSS
notes: as for B1
Turning to B2, the binding result in assay [1] and in assay [2] was “binds” each time.

B3: nanobody H180 (VHH)
VHH: QVQLVESGGGLVQAGGSLKLSCAASGLRSDGTAIGWFRQAPGKEREWVSCIRRRDGGTYYADSVESRFTISRDVAKNTVHLQMNSLKPEDTAVYYCASRDDSWCTTRSYEYSYWGQGTPVTVSS
notes: as for B1
As for B3, the binding result in [1] and in assay [2] was “binds” in each case.

B4: nanobody H93 (VHH)
VHH: QLQLVESGGGLVQPGGSLRLSCVVSGGTLDYHAIAWFRQAPGKVREGVLCISSSGGSTNWLEAVKGRFTISRDNAKNTVYLQMNSLKPEDTAVYYCAAVRRCFLTTWTPINPYYGMHSWGKGTLVTVSS
notes: as for B1
With B4, the binding result in assay [1] and in [2] was “binds” throughout.

B5: H15 (VHH)
VHH: QLQLVESGGALAQPGGSLTLSCAVRGATLDSYAIAWFREAPGEEREGVACIGGSEESTFMKYSLKDRVSLSTNRAEKMVYLHMNSLQPEDTAAYYCAASASGSRSVLAGCPSRTMGFWGKGTLVTVSS
As for B5, the binding result in assay [3] is given as “binds”.

B6: H36 (VHH)
VHH: QVQLVESGGALVQPGGSLTLSCSGHGITLRHYTVGWFREAPGKRRQWISSIRSSDERTNYAASVKGRFIISRNDGENTVKLQLNDVGPEDMATYRCAAGADTIKVFSGWAADYMFWGQGTQVTVSS
Consider B6, for which, in assay [3], the binding result is reported as “binds”.

B7: nanobody H49 (VHH)
VHH: QLQLVESGGGSVQAGGSLRLACTTSGRTFNKYAMAWFRQPPGQEREFIASITWIGGSTYYANSAKGRFTISRDNAKNTAYLQMNSLKPDDTAVYQCQLRKGILSYWGQGTQVTVSS
notes: as for B1
Turning to B7, the binding result in assay [1] and in assay [2] was “binds” each time.

B8: nanobody H145 (VHH)
VHH: QVQLVESGGGLVQTGGSLRLSCEASGSAFSSYAVNWYRQAPGKQREPVAAIGSFNTVYSDSVKGRFTISRDNAKNTVYLQMNSLKPEDTAVYICNARRGATNTWGQGTQVTVSS
notes: also called anti-SH nNb H145; not shown: His6, C-terminal, kept
For the molecule B8, the binding result in assay [4] is “binds”; in assay [5], “binds”; in assay [6], “binds”; in assay [1], “binds”; in assay [7], “binds”; in assay [8], “no binding (tested: 200 nM)”. Further, the binding result in [9] is reported as “binds”; in [10] it was “no binding (tested: 200 nM)”; in [11], “no binding (tested: 200 nM)”; in [2], “binds”; in assay [13], “binds”; in [14], “binds”. This molecule came in with an EC50 in assay [12] of 2 nM.

B9: nanobody H17 (VHH)
VHH: EVQVVESGGGLVQTGGSLRLSCAASGSAFSSYAVNWYRQAPGKQREPVAAIGSFNTVYSDSVKGRFTISRDNAKNTVYLQMNSLKPEDTAVYVCNARRGATNYWGQGTQVTVSP
notes: also called anti-SH nNb H17; not shown: His6, C-terminal, kept
For the molecule B9, the binding result in assay [4] is “binds”; in [5], “binds”; in assay [6] it was “binds”; in assay [1] it was “binds”; in assay [7] it was “binds”; in assay [15], “no binding (tested: 200 nM)”. The binding result in assay [2] is given as “binds”; in assay [16] it was “no binding (tested: 200 nM)”; in assay [17], “no binding (tested: 200 nM)”; in assay [13] it was “binds”. The same molecule displayed an EC50 in [12] of 11.3 nM.

B10: nanobody H177 (VHH)
VHH: QVQLVESGGGRVPPGGSLRLSCVASGFYWDYFVISWFRQAPGKEREWVSCIRSATDSANYADFVKGRFTISRENGKSTVYLQMNSLTPEDTAVYRCAVAYGTSWCRNPADMNYWGKGTLVTVSS
notes: as for B1
Consider B10, for which the binding result in assay [1] and in assay [2] was “binds” in each case.
